The text below walks through data of patent publication US20110201552A1 (Janssen / Centocor, published 2011).

Test [1] concerns the target T1, soluble GFRα-1 IgG1-Fc fusion protein (GFRα-1 amino acids 27 to 427 fused to human IgG1-Fc, from CHO cells) (human, UniProt P56159 27-427).
T1 construct: range 27-427; The 17 amino acid CD33 signal peptide of the vector is left out; also called GFRα1-Fc; not shown: 243 amino acid COOH-terminal human IgG1-Fc fusion domain of vector Signal pIg plus (R&D Systems); Its exact limits and a
T1 sequence (looked up): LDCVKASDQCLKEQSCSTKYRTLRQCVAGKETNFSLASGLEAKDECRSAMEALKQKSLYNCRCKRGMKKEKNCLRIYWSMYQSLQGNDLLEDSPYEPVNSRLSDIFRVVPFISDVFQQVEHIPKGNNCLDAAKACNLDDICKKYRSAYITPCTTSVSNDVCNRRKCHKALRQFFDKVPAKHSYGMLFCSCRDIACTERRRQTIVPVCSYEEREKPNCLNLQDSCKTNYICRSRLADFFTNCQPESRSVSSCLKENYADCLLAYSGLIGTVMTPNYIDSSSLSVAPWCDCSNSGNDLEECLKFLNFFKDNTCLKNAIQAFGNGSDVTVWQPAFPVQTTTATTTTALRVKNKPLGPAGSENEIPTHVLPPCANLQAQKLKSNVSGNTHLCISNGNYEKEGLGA
Briefly: SPR (BIAcore 3000), enovin immobilized, soluble GFRα-Fc in flow. How it is done: (§1) Surface plasmon resonance (SPR) experiments were performed at 25° C. using a BIAcore 3000 instrument. Analyses were performed with enovin and NGF as immobilized ligands. The carboxylated matrix of a Fl sensor chip was first activated with a 1:1 mixture of 400 mM N-ethyl-N-(dimethylaminopropyl)-carbodiimide and 100 mM N-hydroxy-succinimide for 10 min. Than, recombinant enovin and NGF were applied onto the activated surface in […] acetate buffer, pH 4.5 at a flow rate of 5 μl/min. Unoccupied reactive groups were inactivated with 1 M ethanolamine hydrochloride. For binding experiments, soluble GFRα1-3-Fc were superfused at concentrations of 10-100 nM in HEPES buffered saline (150 mM NaCl, 3.5 mM EDTA, 0.05% P-20, 10 mM HEPES, pH 7.4) at a flow rate of 10 μl/min. The association was monitored for 3 min and dissociation for 1 min, followed by regeneration with 5 mM NaOH. Dissociation was initiated by superfusion with HEPES buffered saline. A BIAcore evaluation software, 3.0 was used to calculate the association rate (kₐ), dissociation rate (kd) and the equilibrium dissociation constants (KD calculated as kd/Kₐ).

Test [2] addresses T2, soluble GFRα-2 IgG1-Fc fusion protein (GFRα-2 amino acids 20 to 431 fused to human IgG1-Fc, from CHO cells) (human, UniProt O00451 20-431).
T2 construct: range 20-431; The 17 amino acid CD33 signal peptide of the vector is left out; also called GFRα2-Fc; not shown: 243 amino acid COOH-terminal human IgG1-Fc fusion domain of vector Signal pIg plus (R&D Systems); Its exact limits and a
T2 sequence (looked up): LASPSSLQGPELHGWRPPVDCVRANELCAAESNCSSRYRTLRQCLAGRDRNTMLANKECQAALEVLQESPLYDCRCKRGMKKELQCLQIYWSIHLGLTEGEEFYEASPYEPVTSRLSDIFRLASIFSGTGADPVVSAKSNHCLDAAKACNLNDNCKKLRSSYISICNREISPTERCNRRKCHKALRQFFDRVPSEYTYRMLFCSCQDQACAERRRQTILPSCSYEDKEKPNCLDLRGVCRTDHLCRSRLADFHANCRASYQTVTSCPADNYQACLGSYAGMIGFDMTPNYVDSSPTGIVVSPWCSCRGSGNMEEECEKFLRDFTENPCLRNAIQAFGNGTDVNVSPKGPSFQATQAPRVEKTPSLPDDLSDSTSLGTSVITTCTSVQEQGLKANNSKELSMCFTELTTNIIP
The test is described as above. As for the experimental part:
as §1

Test [3] addresses recombinant enovin (6xHis-tagged mature human Enovin expressed from plasmid hEVNmat/pRSETB in E. coli BL21(DE3), refolded) (human). The test is described as follows: SPR (BIAcore 3000, 25 C), enovin immobilized, soluble GFRα3-Fc in flow at three concentrations. (In general: Surface plasmon resonance follows binding to a sensor surface in real time, without labels.)
For test [4] the target is unchanged. Briefly: SPR (BIAcore 3000, 25 C), enovin immobilized, soluble GFRα3-Fc in flow; KD calculated as kd/ka.

B1: recombinant enovin (6xHis-tagged mature human Enovin expressed from plasmid hEVNmat/pRSETB in E. coli BL21(DE3), refolded) (ligand)
chain: MRGSHHHHHHGMASMTGGQQMGRDLYDDDDKDPAGGPGSRARAAGARGCRLRSQLVPVRALGLGHRSDELVRFRFCSGSCRRARSPHDLSLASLLGAGALRPPPGSRPVSQPCCRPTRYEAVSFMDVNSTWRTVDRLSATACGCLG
notes: The construct codes for a 146 amino acid protein: 33 leader and tag residues plus 113 residues of mature enovin; also called immobilized enovin
With B1, the binding result in test [1] and in test [2] was “no binding (tested: 10-100 nM)” each time.

B2: soluble GFRα-3 IgG1-Fc fusion protein (GFRα-3 amino acids 28 to 371 fused to human IgG1-Fc, from CHO cells) (Fc fusion, UniProt O60609 28-371, looked up, not shown: a dimerising Fc or GST)
chain: LAAGDPLPTESRLMNSCLQARRKCQADPTCSAAYHHLDSCTSSISTPLPSEEPSVPADCLEAAQQLRNSSLIGCMCHRRMKNQVACLDIYWTVHRARSLGNYELDVSPYEDTVTSKPWKMNLSKLNMLKPDSDLCLKFAMLCTLNDKCDRLRKAYGEACSGPHCQRHVCLRQLLTFFEKAAEPHAQGLLLCPCAPNDRGCGERRRNTIAPNCALPPVAPNCLELRRLCFSDPLCRSRLVDFQTHCHPMDILGTCATEQSRCLRAYLGLIGTAMTPNFVSNVNTSVALSCTCRGSGNLQEECEMLEGFFSHNPCLTEAIAAKMRFHSQLFSQDWPHPTFAVMAHQ
Usually koff stands for a measure of how fast the partners let go of each other. Usually kon stands for the second-order rate constant of association. As usually defined, the Kd is the constant that tells how readily two partners part at equilibrium. Turning to B2, in test [3], the koff amounted to 0.000508 s⁻¹ and the kon was 165000 M⁻¹ s⁻¹. The Kd in test [4] is 3.1 nM.
